{"source": "the supplement of paper PMC10126150", "note": "± gives the standard deviation of the averaged measurements.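 Note: ATP exposure 15 min at 22 °C before imaging.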", "data": [{"test_system": "ATP", "test": "switch fluorescence ratio, 500 uM ATP over buffer (Cy3 cluster intensity, sum of 5 cycles each) (fold (ratio)); higher = stronger signal-on switching upon ATP binding; sequences stand for … in TCGTCGGCAGCGTCAGATGTGTATAAGAGACAGTTTTTTTTTTTTTTTTTTTTTTTTT…TC", "conditions": "aptamer strand: ATP DNA aptamer (quencher-CACCTGGGGGAGTATTGCGGAGGAAGG + anchor), 100 nM annealed; ATP concentration: 500 uM", "outline": "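Cy3-labelled switching-strand clusters on a modified Illumina MiSeq flow-cell were annealed to 100 nM quencher-labelled ATP aptamer and imaged first in selection buffer, then after 15 min with 500 uM ATP at 22 °C. NaOH stripping and re-annealing separated each of five buffer/ATP cycles, and clusters outside 100-1000 RFU were excluded. The fluorescence ratio sums target-cycle Cy3 intensity over buffer-cycle Cy3 intensity per cluster and averages it per switch-domain sequence.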", "values": [{"sequence": "TTTACGTAAA", "switch fluorescence ratio": "1.08 ± 0.11"}, {"sequence": "TTTACTTCGC", "switch fluorescence ratio": "1.54 ± 0.089"}, {"sequence": "TTTAGAGGGG", "switch fluorescence ratio": "1.02 ± 0.024"}, {"sequence": "TTTAGATAAT", "switch fluorescence ratio": "1 ± 0.014"}, {"sequence": "TTTAGCCCAG", "switch fluorescence ratio": "1.013 ± 0.0024"}, {"sequence": "TTTAGCCGGT", "switch fluorescence ratio": "0.995 ± 0.012"}, {"sequence": "TTTAGGACGC", "switch fluorescence ratio": "1.02 ± 0.022"}, {"sequence": "TTTAGGAGGG", "switch fluorescence ratio": "0.997 ± 0.019"}, {"sequence": "TTTAGGATAA", "switch fluorescence ratio": "1.02 ± 0.013"}, {"sequence": "TTTAGGATTG", "switch fluorescence ratio": "0.98 ± 0.034"}, {"sequence": "TTTAGGCAAT", "switch fluorescence ratio": "3.43 ± 2.7"}, {"sequence": "TTTAGGCCAT", "switch fluorescence ratio": "1.017 ± 0.01"}, {"sequence": "TTTAGGCCCC", "switch fluorescence ratio": "0.993 ± 0.044"}, {"sequence": "TTTAGGCCGA", "switch fluorescence ratio": "0.99 ± 0.043"}, {"sequence": "TTTAGGGAGT", "switch fluorescence ratio": "0.985 ± 0.015"}, {"sequence": "TTTAGGGGAT", "switch fluorescence ratio": "1.01 ± 0.038"}, {"sequence": "TTTAGGGGCC", "switch fluorescence ratio": "0.987 ± 0.021"}, {"sequence": "TTTAGGGGGA", "switch fluorescence ratio": "1.01 ± 0.044"}, {"sequence": "TTTAGGGTGA", "switch fluorescence ratio": "1.05 ± 0.028"}, {"sequence": "TTTAGGGTGC", "switch fluorescence ratio": "1.03 ± 0.079"}, {"sequence": "TTTAGGGTTT", "switch fluorescence ratio": "1.06 ± 0.19"}, {"sequence": "TTTAGGTGGT", "switch fluorescence ratio": "1.11 ± 0.2"}, {"sequence": "TTTAGTCATT", "switch fluorescence ratio": "0.989 ± 0.04"}, {"sequence": "TTTAGTCCCC", "switch fluorescence ratio": "1.06 ± 0.046"}, {"sequence": "TTTAGTCGGT", "switch fluorescence ratio": "0.9638 ± 0.0056"}, {"sequence": "TTTAGTGACA", "switch fluorescence ratio": "0.9978 ± 0.0036"}, {"sequence": "TTTAGTGCAT", "switch fluorescence ratio": "1.03 ± 0.034"}, {"sequence": "TTTAGTGTAA", "switch fluorescence ratio": "0.966 ± 0.019"}, {"sequence": "TTTAGTTATT", "switch fluorescence ratio": "0.998 ± 0.017"}, {"sequence": "TTTAGTTGCC", "switch fluorescence ratio": "0.984 ± 0.058"}, {"sequence": "TTTATAAATG", "switch fluorescence ratio": "1.014 ± 0.0017"}, {"sequence": "TTTATACGGT", "switch fluorescence ratio": "1.01 ± 0.005"}, {"sequence": "TTTATAGAGT", "switch fluorescence ratio": "1.03 ± 0.029"}, {"sequence": "TTTATAGGCG", "switch fluorescence ratio": "0.987 ± 0.023"}, {"sequence": "TTTATAGGGA", "switch fluorescence ratio": "0.987 ± 0.015"}, {"sequence": "TTTATAGGGC", "switch fluorescence ratio": "1.01 ± 0.021"}, {"sequence": "TTTATAGGTG", "switch fluorescence ratio": "1.14 ± 0.089"}, {"sequence": "TTTATATTAA", "switch fluorescence ratio": "1.03 ± 0.049"}, {"sequence": "TTTATATTCT", "switch fluorescence ratio": "1.03 ± 0.074"}, {"sequence": "TTTATATTTG", "switch fluorescence ratio": "1 ± 0.027"}, {"sequence": "TTTATCAGCT", "switch fluorescence ratio": "0.9985 ± 0.0065"}, {"sequence": "TTTATCGTTT", "switch fluorescence ratio": "1 ± 0.032"}, {"sequence": "TTTATGGAAT", "switch fluorescence ratio": "0.998 ± 0.015"}, {"sequence": "TTTATGGTCC", "switch fluorescence ratio": "1.02 ± 0.029"}, {"sequence": "TTTATGGTTT", "switch fluorescence ratio": "1 ± 0.031"}, {"sequence": "TTTATGTATT", "switch fluorescence ratio": "1 ± 0.022"}, {"sequence": "TTTATGTGGA", "switch fluorescence ratio": "1.01 ± 0.027"}, {"sequence": "TTTATTAGTT", "switch fluorescence ratio": "0.998 ± 0.025"}, {"sequence": "TTTATTCAAG", "switch fluorescence ratio": "0.988 ± 0.021"}, {"sequence": "TTTATTCGCG", "switch fluorescence ratio": "1.03 ± 0.029"}, {"sequence": "TTTATTGCAT", "switch fluorescence ratio": "1.018 ± 0.0082"}, {"sequence": "TTTATTTAAC", "switch fluorescence ratio": "1.052 ± 0.01"}, {"sequence": "TTTATTTAGC", "switch fluorescence ratio": "1.02 ± 0.034"}, {"sequence": "TTTATTTGAT", "switch fluorescence ratio": "0.9955 ± 0.0012"}, {"sequence": "TTTATTTTCC", "switch fluorescence ratio": "1.05 ± 0.033"}, {"sequence": "TTTCAAAAAT", "switch fluorescence ratio": "1.01 ± 0.044"}, {"sequence": "TTTCAAATCT", "switch fluorescence ratio": "1.026 ± 0.0019"}, {"sequence": "TTTCAAATGT", "switch fluorescence ratio": "1.11 ± 0.17"}, {"sequence": "TTTCAAGGGG", "switch fluorescence ratio": "0.996 ± 0.011"}, {"sequence": "TTTCAAGTAC", "switch fluorescence ratio": "1.49 ± 0.21"}, {"sequence": "TTTCAATAAT", "switch fluorescence ratio": "0.988 ± 0.023"}, {"sequence": "TTTCAATAGT", "switch fluorescence ratio": "1.09 ± 0.14"}, {"sequence": "TTTCAATATT", "switch fluorescence ratio": "1.03 ± 0.031"}, {"sequence": "TTTCAATCTG", "switch fluorescence ratio": "1.04 ± 0.038"}, {"sequence": "TTTCAATGGT", "switch fluorescence ratio": "1 ± 0.045"}, {"sequence": "TTTCACAAAG", "switch fluorescence ratio": "1 ± 0.018"}, {"sequence": "TTTCACGCTC", "switch fluorescence ratio": "1.12 ± 0.21"}, {"sequence": "TTTCACGGGA", "switch fluorescence ratio": "1.07 ± 0.066"}, {"sequence": "TTTCACTATT", "switch fluorescence ratio": "1.01 ± 0.026"}, {"sequence": "TTTCAGACAC", "switch fluorescence ratio": "1.02 ± 0.011"}, {"sequence": "TTTCAGGTGT", "switch fluorescence ratio": "2.15 ± 0.98"}, {"sequence": "TTTCAGTGAC", "switch fluorescence ratio": "1.04 ± 0.079"}, {"sequence": "TTTCATAGTT", "switch fluorescence ratio": "0.954 ± 0.017"}, {"sequence": "TTTCATATTT", "switch fluorescence ratio": "1.03 ± 0.014"}, {"sequence": "TTTCATGGTA", "switch fluorescence ratio": "0.998 ± 0.0099"}, {"sequence": "TTTCATTCGG", "switch fluorescence ratio": "1.06 ± 0.13"}, {"sequence": "TTTCATTGGT", "switch fluorescence ratio": "1 ± 0.027"}, {"sequence": "TTTCCAAACA", "switch fluorescence ratio": "1.01 ± 0.014"}, {"sequence": "TTTCCAAGGT", "switch fluorescence ratio": "1.12 ± 0.11"}, {"sequence": "TTTCCACGGG", "switch fluorescence ratio": "1.18 ± 0.025"}, {"sequence": "TTTCCCGGCT", "switch fluorescence ratio": "1.04 ± 0.083"}, {"sequence": "TTTCCCGTTT", "switch fluorescence ratio": "1.13 ± 0.095"}, {"sequence": "TTTCCGTGAT", "switch fluorescence ratio": "1.918 ± 0.013"}, {"sequence": "TTTCCTGACG", "switch fluorescence ratio": "1.06 ± 0.028"}, {"sequence": "TTTCCTGGCT", "switch fluorescence ratio": "1.02 ± 0.032"}, {"sequence": "TTTCCTTGAA", "switch fluorescence ratio": "0.974 ± 0.017"}, {"sequence": "TTTCGAAGGT", "switch fluorescence ratio": "0.987 ± 0.019"}, {"sequence": "TTTCGAATAT", "switch fluorescence ratio": "0.9836 ± 0.0061"}, {"sequence": "TTTCGACGTC", "switch fluorescence ratio": "0.997 ± 0.12"}, {"sequence": "TTTCGAGAGA", "switch fluorescence ratio": "1.02 ± 0.027"}, {"sequence": "TTTCGAGTCA", "switch fluorescence ratio": "1 ± 0.03"}, {"sequence": "TTTCGATTCT", "switch fluorescence ratio": "0.978 ± 0.029"}, {"sequence": "TTTCGCCGTT", "switch fluorescence ratio": "1.003 ± 0.0055"}, {"sequence": "TTTCGGAAAG", "switch fluorescence ratio": "0.967 ± 0.042"}, {"sequence": "TTTCGGAACA", "switch fluorescence ratio": "1.001 ± 0.0066"}, {"sequence": "TTTCGGAGAA", "switch fluorescence ratio": "0.962 ± 0.028"}, {"sequence": "TTTCGGAGTG", "switch fluorescence ratio": "1.024 ± 0.0066"}, {"sequence": "TTTCGGCGTT", "switch fluorescence ratio": "1.043 ± 0.0069"}, {"sequence": "TTTCGGGTAC", "switch fluorescence ratio": "1.2 ± 0.22"}, {"sequence": "TTTCGGGTGG", "switch fluorescence ratio": "0.979 ± 0.023"}]}]}
